Test results reported in patent US20050221343A1 (LOS ALAMOS NATIONAL SECURITY, published 2005).
No end group written: not given here.

Target: T1, folding reporter GFP 1-10 (Aequorea victoria, UniProt P42212 1-214 = GFP)
T1 construct: range 1-214; also called folding reporter GFP fragment 1-214; FR
Assay: co-expression from compatible pET vectors in E. coli, colony fluorescence (split GFP complementation)

T1 sequence (P42212 other isoform, or with tags, fused parts or gaps limits assumed): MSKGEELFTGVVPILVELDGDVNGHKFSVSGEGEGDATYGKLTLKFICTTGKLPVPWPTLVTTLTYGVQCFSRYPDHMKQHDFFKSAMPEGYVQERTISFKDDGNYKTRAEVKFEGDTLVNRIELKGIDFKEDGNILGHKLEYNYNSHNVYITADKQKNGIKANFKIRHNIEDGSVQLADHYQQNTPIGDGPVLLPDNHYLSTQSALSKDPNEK

B1: GFP S11 wild type (peptide)
peptide: KRDHMVLLEFVTAAGITGT
modifications: also: fused to sulfite reductase
notes: also called GFP S11 214-230; wild type GFP S11
binding result: no binding
